Results published in patent US20240279309A1 (Molecular Partners, published 2024).

Experiments:
[1] = biological target: T1, CD40 receptor on cells (HEK293 reporter cells expressing CD40; primary human B cells) (human, UniProt P25942 21-277); test: cell-based or functional assay
[2] = biological target: T1, CD40 receptor on cells (HEK293 reporter …); test: cell-based or functional assay; remark: listed apart in the source
[3] = biological target: T1, CD40 receptor on cells (HEK293 reporter …); test: cell-based or functional assay; remark: listed apart in the source
[4] = biological target: T2, biotinylated human CD40 (recombinant human CD40 target) (human, UniProt P25942 21-194, biotinylated (site not stated)); test: SPR (ProteOn), biotinylated human CD40 on NLC chip, ankyrin repeat protein injected, 1:1 Langmuir, PBST
T2 construct: The HTRF and SPR texts say only 'biotinylated human CD40'; the Materials list a bought Fc fusion of the extracellular domain of human CD40 (ACRO Biosystems) as the only recombinant CD40; also called hCD40; Recombinant Fc fusion protein of the extracellular domain of human CD40; not shown: IgG1 Fc domain
T2 sequence (P25942 other isoform, or with tags, fused parts or gaps): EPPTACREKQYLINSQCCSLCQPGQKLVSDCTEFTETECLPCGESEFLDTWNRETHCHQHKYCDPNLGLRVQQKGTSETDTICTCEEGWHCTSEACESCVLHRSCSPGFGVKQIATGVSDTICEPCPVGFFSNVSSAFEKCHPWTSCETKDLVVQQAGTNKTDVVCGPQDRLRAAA
Procedure: Briefly, biotinylated human CD40 was diluted in PBST (PBS, pH 7.4 containing 0.005% Tween 20®) and coated on two lanes of a NLC chip (BioRad) to levels of respectively 400 and 700 resonance units (RU). The interaction of ankyrin repeat protein and hCD40 was then measured by injecting 200 μl running buffer (PBS, pH 7.4 containing 0.005% Tween 20®) containing serial dilutions of ankyrin repeat proteins covering a concentration range between 50 nM and 3 nM for multi-trace SPR measurements (on-rate measurement), followed by a running buffer flow for at least 10 minutes at a constant flow rate of 100 μl/min (off-rate measurement). The regeneration was performed using 30 μl of 10 mM Glycine-HCl pH 2. The signals (i.e. resonance unit (RU) values) of the interspots and a reference injection (i.e. injection of running buffer only) were subtracted from the RU traces obtained after injection of ankyrin repeat protein (double-referencing). Based on the SPR traces obtained from the on-rate and off-rate measurements, the on- and off-rate of the corresponding ankyrin repeat protein—CD40 interaction was determined using a 1:1 Langmuir kinetic model.
Dissociation constants (KD) were calculated from the estimated on- and off-rates using standard procedures known to the person skilled in the art. KD values of the binding interactions of selected ankyrin repeat proteins with human CD40 were determined to be in the nanomolar range. Table 2 provides the KD values of some selected ankyrin repeat proteins as examples.

[5] = biological target: T1, CD40 receptor on cells (HEK293 reporter …); test: cell-based or functional assay; remark: listed apart in the source

T1 sequence (P25942 21-277): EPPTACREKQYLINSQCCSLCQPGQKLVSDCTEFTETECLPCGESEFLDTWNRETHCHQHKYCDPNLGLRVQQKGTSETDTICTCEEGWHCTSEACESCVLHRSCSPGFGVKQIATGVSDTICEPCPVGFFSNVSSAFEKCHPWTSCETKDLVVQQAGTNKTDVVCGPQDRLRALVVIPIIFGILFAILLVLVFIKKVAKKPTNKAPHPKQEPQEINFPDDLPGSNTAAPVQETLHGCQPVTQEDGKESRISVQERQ

Binder	EC50 [nM], % CD86, human B cells with FAP-CHO, w HSA [1] [nM]	EC50 [nM], % CD86, human B cells with FAP-CHO, w/o HSA [1] [nM]	EC50 [nM], MFI CD86, human B cells with FAP-CHO, w HSA [1] [nM]	EC50 [nM], MFI CD86, human B cells with FAP-CHO, w/o HSA [1] [nM]	Efficacy [MFI at highest dose], MFI CD86, human B cells with FAP-CHO, w HSA [2] [MFI]	Efficacy [MFI at highest dose], MFI CD86, human B cells with FAP-CHO, w/o HSA [2] [MFI]	Efficacy at highest dose, % CD86, human B cells with FAP-CHO, w HSA [2] [%]	Efficacy at highest dose, % CD86, human B cells with FAP-CHO, w/o HSA [2] [%]	Efficacy [MFI at highest dose], MFI CD86, human B cells with WT-CHO (no FAP), w HSA [3] [MFI]	Efficacy [MFI at highest dose], MFI CD86, human B cells with WT-CHO (no FAP), w/o HSA [3] [MFI]	Efficacy at highest dose, % CD86, human B cells with WT-CHO (no FAP), w HSA [3] [%]	Efficacy at highest dose, % CD86, human B cells with WT-CHO (no FAP), w/o HSA [3] [%]	Kd [4] [nM]	efficacy of CD86 upregulation on human B cells with FAP-CHO, fold against the monovalent F-C format (SMA014) [5] [fold]	potency of CD86 upregulation on human B cells with FAP-CHO, fold against the monovalent F-C format (SMA014) [5] [fold]
ankyrin repeat domain of SEQ ID NO: 22 (designed binder, Expressed in E. coli from a pQE30 derivative that provides an N-terminal His-tag; purified by its His-tag for SPR) MRGSHHHHHHGSDLGKKLLQAARAGQLDEVRELLKAGADVNAKDEFGQTPLHIAAKSGHLEIVEVLLKAGADVNAKDVYGRTPLHLAAQYGHLEIVEVLLKAGADVNAKDTQGVTPLHVAAFKGHLEIVEVLLKAGADVNAQDKSGKTPADLAARAGHQDIAEVLQKAA													12		
SMA087 (SEQ ID NO: 100) (designed binder) MRGSHHHHHHGSDLGKKLLEAARAGQDDEVRELLKAGADVNAKDYFSHTPLHLAARNGHLKIVEVLLKAGADVNAKDFAGKTPLHLAAADGHLEIVEVLLKAGADVNAQDIFGKTPADIAADAGHEDIAEVLQKAAGSPTPTPTTPTPTPTTPTPTPTGSDLGEKLLVAALYGQDDEVRELLKAGADVNAKDQWGLTPLHKAALQGHLEIVEVLLKAGADVNAKDERGHTPLHWAARFGHLEIVEVLLKAGADVNAQDQKGYTPADLAALWGHEDIAEVLQKAAGSPTPTPTTPTPTPTTPTPTPTGSDLGKKLLQAARAGQLDEVRELLKAGADVNAKDTWGFTPLHIAAESGHLEIVEVLLKAGADVNAKDVQGRTPLHIAAHSGHLEIVEVLLKAGADVNAKDFRGWTPLHLAAWSGHLEIVEILLKAGADVNAQDKSGKTPADLAARAGHQDIAEVLQKAA	72.3	11.4	52	28.9	799	1640	27	43.4	299	291	13.7	12.5			
DARPin® protein #29 (SEQ ID NO: 29) (designed binder, His-tagged as expressed for HTRF and SPR) MRGSHHHHHHGSDLGKKLLQAARAGQLDEVRELLKAGADVNAKDTWGFTPLHIAAESGHLEIVEVLLKAGADVNAKDVQGRTPLHIAAHSGHLEIVEVLLKAGADVNAKDFRGWTPLHLAAWSGHLEIVEILLKAGADVNAQDKSGKTPADLAARAGHQDIAEVLQKAA													73		

The next lines start with the values.

EC50 [nM], % CD86, human B cells with FAP-CHO, w HSA [1] [nM]	EC50 [nM], % CD86, human B cells with FAP-CHO, w/o HSA [1] [nM]	EC50 [nM], MFI CD86, human B cells with FAP-CHO, w HSA [1] [nM]	EC50 [nM], MFI CD86, human B cells with FAP-CHO, w/o HSA [1] [nM]	Efficacy [MFI at highest dose], MFI CD86, human B cells with FAP-CHO, w HSA [2] [MFI]	Efficacy [MFI at highest dose], MFI CD86, human B cells with FAP-CHO, w/o HSA [2] [MFI]	Efficacy at highest dose, % CD86, human B cells with FAP-CHO, w HSA [2] [%]	Efficacy at highest dose, % CD86, human B cells with FAP-CHO, w/o HSA [2] [%]	Efficacy [MFI at highest dose], MFI CD86, human B cells with WT-CHO (no FAP), w HSA [3] [MFI]	Efficacy [MFI at highest dose], MFI CD86, human B cells with WT-CHO (no FAP), w/o HSA [3] [MFI]	Efficacy at highest dose, % CD86, human B cells with WT-CHO (no FAP), w HSA [3] [%]	Efficacy at highest dose, % CD86, human B cells with WT-CHO (no FAP), w/o HSA [3] [%]	Kd [4] [nM]	efficacy of CD86 upregulation on human B cells with FAP-CHO, fold against the monovalent F-C format (SMA014) [5] [fold]	potency of CD86 upregulation on human B cells with FAP-CHO, fold against the monovalent F-C format (SMA014) [5] [fold]	Binder
10.2	2.27	23.1	10	1780	4860	71.9	83	242	252	40.1	42				AS579 (SEQ ID NO: 105) (designed binder) MRGSHHHHHHGSDLGKKLLEAARAGQDDEVRELLKAGADVNAKDYFSHTPLHLAARNGHLKIVEVLLKAGADVNAKDFAGKTPLHLAAADGHLEIVEVLLKAGADVNAQDIFGKTPADIAADAGHEDIAEVLQKAAGSPTPTPTTPTPTPTTPTPTPTGSDLGKKLLEAARAGQDDEVRELLKAGADVNAKDYFSHTPLHLAARNGHLKIVEVLLKAGADVNAKDFAGKTPLHLAAADGHLEIVEVLLKAGADVNAQDIFGKTPADIAADAGHEDIAEVLQKAAGSPTPTPTTPTPTPTTPTPTPTGSDLGEKLLVAALYGQDDEVRELLKAGADVNAKDQWGLTPLHKAALQGHLEIVEVLLKAGADVNAKDERGHTPLHWAARFGHLEIVEVLLKAGADVNAQDQKGYTPADLAALWGHEDIAEVLQKAAGSPTPTPTTPTPTPTTPTPTPTGSDLGKKLLQAARAGQLDEVRELLKAGADVNAKDTWGFTPLHIAAESGHLEIVEVLLKAGADVNAKDVQGRTPLHIAAHSGHLEIVEVLLKAGADVNAKDFRGWTPLHLAAWSGHLEIVEILLKAGADVNAQDKSGKTPADLAARAGHQDIAEVLQKAAGSPTPTPTTPTPTPTTPTPTPTGSDLGKKLLQAARAGQLDEVRELLKAGADVNAKDTWGFTPLHIAAESGHLEIVEVLLKAGADVNAKDVQGRTPLHIAAHSGHLEIVEVLLKAGADVNAKDFRGWTPLHLAAWSGHLEIVEILLKAGADVNAQDKSGKTPADLAARAGHQDIAEVLQKAA
												73.5			ankyrin repeat domain of SEQ ID NO: 31 (designed binder, Expressed in E. coli from a pQE30 derivative that provides an N-terminal His-tag; purified by its His-tag for SPR) MRGSHHHHHHGSDLGKKLLWAAAAGQLDEVRELLKAGADVNAKDHVGYTPLHIAALAGHLEIVEVLLKAGEDVNAKDHKGRTPLHVAAAVGHLEIVEVLLKAGADVNAKDQQGVTPLHIAAITGHLEIVEVLLKAGADVNAQDKSGKTPADLAARAGHQDIAEVLQKAA
6.15	4.21	7.7	8.46	2190	2440	47	48.4	310	294	13.3	13.2				SMA014 (SEQ ID NO: 99) (designed binder) MRGSHHHHHHGSDLGEKLLVAALYGQDDEVRELLKAGADVNAKDQWGLTPLHKAALQGHLEIVEVLLKAGADVNAKDERGHTPLHWAARFGHLEIVEVLLKAGADVNAQDQKGYTPADLAALWGHEDIAEVLQKAAGSPTPTPTTPTPTPTTPTPTPTGSDLGKKLLQAARAGQLDEVRELLKAGADVNAKDTWGFTPLHIAAESGHLEIVEVLLKAGADVNAKDVQGRTPLHIAAHSGHLEIVEVLLKAGADVNAKDFRGWTPLHLAAWSGHLEIVEILLKAGADVNAQDKSGKTPADLAARAGHQDIAEVLQKAA
	0.23		0.74		6270		86.8		252		46		2	20	SMA104 (SEQ ID NO: 102) (designed binder) MRGSHHHHHHGSDLGEKLLVAALYGQDDEVRELLKAGADVNAKDQWGLTPLHKAALQGHLEIVEVLLKAGADVNAKDERGHTPLHWAARFGHLEIVEVLLKAGADVNAQDQKGYTPADLAALWGHEDIAEVLQKAAGSPTPTPTTPTPTPTTPTPTPTGSDLGKKLLQAARAGQLDEVRELLKAGADVNAKDTWGFTPLHIAAESGHLEIVEVLLKAGADVNAKDVQGRTPLHIAAHSGHLEIVEVLLKAGADVNAKDFRGWTPLHLAAWSGHLEIVEILLKAGADVNAQDKSGKTPADLAARAGHQDIAEVLQKAAGSPTPTPTTPTPTPTTPTPTPTGSDLGKKLLQAARAGQLDEVRELLKAGADVNAKDTWGFTPLHIAAESGHLEIVEVLLKAGADVNAKDVQGRTPLHIAAHSGHLEIVEVLLKAGADVNAKDFRGWTPLHLAAWSGHLEIVEILLKAGADVNAQDKSGKTPADLAARAGHQDIAEVLQKAA
